Experimental data reported in the nanobody polyreactivity screen of Harvey et al. (2022).

Experiment: yeast display, Sf9 membrane polyspecificity reagent, FACS + sequencing; frameworks hold sequencing errors
How it was run: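 A synthetic nanobody library was expressed on Saccharomyces cerevisiae BJ5465 by galactose induction for 36–48 hours. The library was stained for 1 hour at 4 °C with 10% biotinylated, detergent-solubilized Sf9 membrane reagent and enriched with streptavidin microbeads before FACS. Low and high (top ~1%) gates were set on anti-HA fluorescence for expression and streptavidin fluorescence for reagent binding, and each polyreactivity label reflects the gate of origin.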
In the case of “QVQLVESGGGLVHAGGSLRLSCAASGRTFNRYAMGWYRQAPGKERELVAAISGGGSSTSYADSVKGRFTISRDNAKNTVYLQMNSLKPEDTAVYYCAAKYGGLRYYNMYYWGQGTQVTVSS”, the “polyreactivity (PSR sort gate)” value is reported as “low polyreactivity”. For “QVQLVESGGGLVHAGGSLRLSCAASGRTFNWNAMGWYRQEPGKEREFVASINGGGSSYYADSVKGRFTISRDNAKNTVYLQMNSLKPDDTAVYYCAAPWVGTFVSGRCYYWGQGTHVTVSS”, the “polyreactivity (PSR sort gate)” value was “low polyreactivity”. In the case of “QVQLVESGGGLVHAGGSLRLSCAASGRTFRWYALGWYRQAPGKERELVAAISSSGTRTYYADSVKGRFTISRDNAKNTVYLQMNSLKPEDTAVYYCAATWRVGYDYWGQGTQVTVSS”, the “polyreactivity (PSR sort gate)” value is reported as “high polyreactivity”. In the case of “QVQLVESGGGLVHAGGSLRLSCAASGRTLKYYAMGWYRQAPGKERELVAAISGGDSTYYADSVKGRFTISRDNAKNTVYLQMNSLKPEDTAVYYCNARRFIWWYPYLRDYWGQGTQVTVSS”, the “polyreactivity (PSR sort gate)” value is reported as “high polyreactivity”. For “QVQLVESGGGLVHAGGSLRLSCAASGSIFDDYAMGWYRQAPGKERELVAAITSGGSTYYADSVKGRFTISRDNAKNTVYLQMNSLKTEDTAVYYRATRYHWSSCFAPVGAYGYWGLGTQVTVSS”, the “polyreactivity (PSR sort gate)” value was “low polyreactivity”. With “QVQLVESGGGLVHAGGSLRLSCAASGSIFEGNGMGWYRQAPGKERELVAAITFRSGSTYNADSVKGRFTISRDNEKNTVYLPMNSLKPEDTAVYYCAADEYYQVSAYDYWGQGTQVTVSS” the “polyreactivity (PSR sort gate)” value was “low polyreactivity”. In the case of “QVQLVESGGGLVHAGGSLRLSCAASGSIFGWYAMGWYRQAPGKERELVASISWSGGGTYYADSVKGRFTISRDNAKNTVYLQMKSLKPEDTAVYYCAAVYIWRYGIRGGYYWGQGTQVSVSS”, the “polyreactivity (PSR sort gate)” value is reported as “high polyreactivity”. For “QVQLVESGGGLVHAGGSLRLSCAASGSIFNVYAMGWYRQAPGKERELVAAITQSGGSTYYADSVKGRFTISRDNAKNTVYLQMNSLKPEDTAVSYCAADNRYTYYYWGQCTQVTVSS”, the “polyreactivity (PSR sort gate)” value was “low polyreactivity”. In the case of “QVQLVESGGGLVHAGGSLRLSCAASGSIFRGYAMGWYRQAPGKERELVAAISRDGGSTYYADSVKGRFSISRDNAKNTVYLQMNSLKPEETAVYYCAADYVAYATYGDGDYWGQGTQVTVSS”, the “polyreactivity (PSR sort gate)” value is reported as “high polyreactivity”. In the case of “QVQLVESGGGLVHAGGSLRLSCAASGSIFRPYAMGWYRQAPGKERELVAAISRRGGSTYYADSVKGRFTISRDNAKNTVYLQLISLKPEDTAVYYCAADHSGPSPYGYGYWGQGTQVTVSS”, the “polyreactivity (PSR sort gate)” value is reported as “high polyreactivity”. For “QVQLVESGGGLVHAGGSLRLSCAASGSIFVRNDMGWYRPAPGKERELVAVITRSAGGTYYADSVKGRFTISRDTAKNSVYFQMNSLKPEDTAFYYCAASPSTPNKYGSWGHGTQVTVSS”, the “polyreactivity (PSR sort gate)” value was “high polyreactivity”. In the case of “QVQLVESGGGLVHAGGSLRLSCAASGSIITYYAMGWSRQAPGKERELVAVISASGGRTYYADSVKVRFTISLDNAMYSVYLQMNSLKPEDTAVYYCAAYRSIYSFKFGYWGQGSQVTVSS”, the “polyreactivity (PSR sort gate)” value is reported as “high polyreactivity”. In the case of “QVQLVESGGGLVHAGGSLRLSCAASGSILARYARGWYRQEPGKERELVAAISSRGGSTYYADSVKGRFTISRDYAKNTVYLQMNSLKPEDTAVYYCAASVYLQVEYDYWGQGTQVTVSS”, the “polyreactivity (PSR sort gate)” value is reported as “low polyreactivity”. With “QVQLVESGGGLVHAGGSLRLSCAASGSTFDRNAMGWARQAPGKDMELVDAISRSGGSTNYADSVKGRFTISRDNAKNTVYLQMNSLKPEDTAVYYCAAVRPLWYGQGWALYWFEYWGQGTQVTVSS” the “polyreactivity (PSR sort gate)” value was “low polyreactivity”. For “QVQLVESGGGLVHAGGSLRLSCAASGSTFIRNAMGWYRQAPGKERELVAAISSSGGRTYYADSVKGRFTISRDNAKNTVYLQMNSLKPEDTAVYYCAARYVPPWGRRYYYWGQGTQVTVSS”, the “polyreactivity (PSR sort gate)” value was “high polyreactivity”. With “QVQLVESGGGLVHAGGSLRLSCAASGSTFNRYAMGWYRQAHGKERELVASISWGGGRTYYADSVKGRFTISRDNEKNTVYLLMNSLKPEDTAVYYCATDRYYRHYEVDYWGQGTQVTVSS” the “polyreactivity (PSR sort gate)” value was “low polyreactivity”. With “QVQLVESGGGLVHAGGSLRLSCAASGSTFPRNDMGWYRQAPGKERELVAAISRGGSTNYADSVKGRFTISRDNAKNTVYLQMNSLKPEDTAVYYCAAQIFESAYGMDYWGQGTQVTVSS” the “polyreactivity (PSR sort gate)” value was “low polyreactivity”. With “QVQLVESGGGLVHAGGSLRLSCAASGSTFWANAMGWYRPPPGKERELVAAITSTGITYYADSVKGRFTISRDNAKNTVYLQMNSLKPEDTAVYYCAADGFRYSVYLIRNPMDYWGQGTQVTVSS” the “polyreactivity (PSR sort gate)” value was “low polyreactivity”. For “QVQLVESGGGLVHAGGSLRLSCAASGSTSGIYAMGWYRQAPGKERELVAAIDTSGGSTYADSLKGRFTISRDNAKYTVYLQMNSLKPEDTAGYYCAKPFSSNSWSHGYWGQGTQVTVSS”, the “polyreactivity (PSR sort gate)” value was “low polyreactivity”. With “QVQLVESGGGLVHAGGSLRLSCAASGYSSSQNAMVWYRQEPGKERELLARITTDGTSTYYADSVKGRFTISRDNAKNTVYLHMNSLKPEDTAVYYCNARYPAYVVRSWYPYAYYYWGQGTQVTVSS” the “polyreactivity (PSR sort gate)” value was “low polyreactivity”. With “QVQLVESGGGLVHAGGSLRLSCAAWSIFYLNAMGWYRQAPGKERELVAAISSAGSTYYADSVKGRFTISRDNAKNTVYLQMNSLKPEDTAVYYCAAYWYDSPGVTEIWYDYWGQGTQVTVSS” the “polyreactivity (PSR sort gate)” value was “low polyreactivity”. For “QVQLVESGGGLVHAGGSLRLSCAAYGSIFNYYAMGWYRQAPGKERVFVADISGSGSSTYYADSVKGRFTISRDNAKNTFYLQKNSLKPEDTAVYYCNAEYYWGVGYYPYSDYGYWGQGTQVTVSS”, the “polyreactivity (PSR sort gate)” value was “low polyreactivity”. In the case of “QVQLVESGGGLVHAGGSLRLSCASSGFTYSQYVMGWYRQAPGKERELVASITGNGGSTRYADSVKGRFTISRDNANKTVYLQMNCLKPEDTAVYYCDTRVKFSTSYWLYYWGQGTQVTVSS”, the “polyreactivity (PSR sort gate)” value is reported as “high polyreactivity”. In the case of “QVQLVESGGGLVHAGGSLRLSCASSGRTFAYSAMGWYRQAPGIERELVATITSAGSTNYADSVKGRFTISRDNAKNTVYLQMNSLKPEDTAVYYCNRRVWGSSRLKYNYWGQGTQVTVSS”, the “polyreactivity (PSR sort gate)” value is reported as “high polyreactivity”. In the case of “QVQLVESGGGLVHAGGSLRLSCASSGSTFAQYALGWYRPAPGKDREFVAAITRGGGRTYYADSVNGRFTISRDNAKYSVYLQMNSLKPEVTAVYYCNAVYRYYPFDYWGQGTQVTVSS”, the “polyreactivity (PSR sort gate)” value is reported as “high polyreactivity”. In the case of “QVQLVESGGGLVHAGGSLRLSCASSGSTFVLYAMGWYRQAPGKERELVAVISWSGGSTYYADSVKGRFTISRDNAKNTVYLQLYSLKPEDTAVYYCAKRYRVSYYPYADPYGYWGQGTQVNVSS”, the “polyreactivity (PSR sort gate)” value is reported as “low polyreactivity”. With “QVQLVESGGGLVHAGGSLRLSCSASGSTFGPYAMGWYRQAPGKERELVAAISSRGARTYYADSVKGRFTISRDNAKNTVYLQMNSLKPEDTAVYYCANTYHGTAYDYWGQGTQVTVSS” the “polyreactivity (PSR sort gate)” value was “high polyreactivity”. For “QVQLVESGGGLVHAGGSLRLTCAASGSISSFYAMGWYRQEPGKERELVAGITSGGSTNYADSVKGRFTISRDNAKNTVYLQMNSLKAEDTAVYYCAAVYKCAGTHFDVFVKEFDYWGQGTQVTVSS”, the “polyreactivity (PSR sort gate)” value was “low polyreactivity”. With “QVQLVESGGGLVHEGGSLRLIFAASGRIFGPNHMGWYRQAPGKERELVAAITDSCDITYYADSVKGRFTISRDNAKNTVYLQMNSLKPQDTAVYYCAADHTYENEYWGQGTQVNVSS” the “polyreactivity (PSR sort gate)” value was “low polyreactivity”. With “QVQLVESGGGLVHSGGSLRLSCAASGSIFDYYAMGLYRQAPGKERELVAAISWRGGTTYYADSVKGRFTISRDNANNTVFLQMNRLKPEYTAVYYCNADKRFRRYDYWGQGNQVTVSS” the “polyreactivity (PSR sort gate)” value was “high polyreactivity”. With “QVQLVESGGGLVKAGGSLRLRGAASGSIFGRYAMGWYRQAPGKERELVAAISKNGGSTYYADSVKGRFTISRDNAKNTVYLQMNILKPEDTAVYYCNTVRYSGNYRDQEGDYWGQGTQVTVSS” the “polyreactivity (PSR sort gate)” value was “high polyreactivity”. In the case of “QVQLVESGGGLVKAGGSLRLSCAASGFIFRTYAMGWYRQAPRKERELVAAITGRGGTTYYADSVKGRFTISRDHAKNTVYLQMNSLKAEDTAVYYCADRSRDYNYNPYDYWGLGTQVTVSS”, the “polyreactivity (PSR sort gate)” value is reported as “high polyreactivity”. In the case of “QVQLVESGGGLVKAGGSLRLSCAASGIIFSFYTMGWYRQAPGKQRELVAAITWSGGSTYYADSVKGRFTISRDNAKNTVYLQMNSLKPEDTAVYFCNARYPWRKRSQGYSWGQGTQVTVSS”, the “polyreactivity (PSR sort gate)” value is reported as “low polyreactivity”. In the case of “QVQLVESGGGLVKAGGSLRLSCAASGITFLYYAMACYRQAPGKERELVAAISTSGGSTYYSDSVKGRFTISRDNAKNTVYLQMNSLKPEDTAVYYCAKSVGVGGEDRVGSWGQGTQVTVSS”, the “polyreactivity (PSR sort gate)” value is reported as “low polyreactivity”. For “QVQLVESGGGLVKAGGSLRLSCAASGLTLPANAMGWYRQAPGKEREFVAAISVGGDTTSYADSVKGRFTISRDNAKNTVYLQMNSLKPEDTAVYYCAADEIHDPRTYRGSAGDYWGQGTQVTVSS”, the “polyreactivity (PSR sort gate)” value was “low polyreactivity”. In the case of “QVQLVESGGGLVKAGGSLRLSCAASGRIFNWYAMGWYRQAPGKEREFVAAITFSGGSTYYADSVKGRFTISRDNAKNTVYLQMNSLKPEDTAVYYCAAEIYFFVSYDYWGQGTQVTVSS”, the “polyreactivity (PSR sort gate)” value is reported as “low polyreactivity”. With “QVQLVESGGGLVKAGGSLRLSCAASGRIFVFNAMGWYRQAPGKERELVAAITSAGSTYYADSVKGRFTISRDNAKNTVYLQMNSLIPEDTAVYYCAAGSRRYRDDYWGQGTQVNVSS” the “polyreactivity (PSR sort gate)” value was “low polyreactivity”. In the case of “QVQLVESGGGLVKAGGSLRLSCAASGRTFALYAMGWYRLAPGKERELVAGITFRGGSTYYADSVKGRFRISRDNAKNTVYLQMNSLKPEDTAVYYCAAERWRWYYSWTMDYWGQGTQVTVSS”, the “polyreactivity (PSR sort gate)” value is reported as “high polyreactivity”. In the case of “QVQLVESGGGLVKAGGSLRLSCAASGRTFRYNAMGWYRQPPGKERELVAVINSNGGSTYYADSVKGRFTISRDNAKNTVYLQMNSLKPEDTAVYYCAADYIRIQEYDYWGQGTQVTVSS”, the “polyreactivity (PSR sort gate)” value is reported as “low polyreactivity”. For “QVQLVESGGGLVKAGGSLRLSCAASGSIFPFYAMGSYRQAPGKERELVATISWSGGRTYYADSVKGRFTISRDNAKNTVYLQMNSLKPEDTAVYYCAAGSYHYPNAYYYWGQGTQVTVSS”, the “polyreactivity (PSR sort gate)” value was “high polyreactivity”. In the case of “QVQLVESGGGLVKAGGSLRLSCAASGSIFRYYAMGWYRQAPGKERELVASITNGGSTNYADSVKGRFTISRDNAKNTVYLQMNSLKPEDTAVYYCAARYLYYTPPPRRYYYWAQGTQVTVSS”, the “polyreactivity (PSR sort gate)” value is reported as “high polyreactivity”. For “QVQLVESGGGLVKAGGSLRLSCAASGSSLRYNAMGWYRQAPGKERELVAAISWGGGRTHYADSVKGRFTISRDNAKNSVYLQMNSLKPEDTAVYYCNGVSVRYLYYYWGQGTQVTVSS”, the “polyreactivity (PSR sort gate)” value was “high polyreactivity”. For “QVQLVESGGGLVKAGGSLRLSCAASGSTFSRNTMGWYRQAPGKERELVAAITKSAVSTYYADTVTGRFTISRDNAKNTDYLEMNSLKPEDTAVYYSAKVYRTSTSKAYDYWGQGTKVTVSS”, the “polyreactivity (PSR sort gate)” value was “high polyreactivity”.
